The source of these data is patent US20200399386A1 (CELGENE, published 2020).

For test [1], the target named is T1, human BCMA (human, UniProt Q02223 1-184).
T1 construct: whole, on cells; Transfected (C6-BCMA) and endogenous (myeloma lines) forms are treated as the same protein on cells; also called B-cell maturation antigen; TNFRSF17
T1 sequence (looked up): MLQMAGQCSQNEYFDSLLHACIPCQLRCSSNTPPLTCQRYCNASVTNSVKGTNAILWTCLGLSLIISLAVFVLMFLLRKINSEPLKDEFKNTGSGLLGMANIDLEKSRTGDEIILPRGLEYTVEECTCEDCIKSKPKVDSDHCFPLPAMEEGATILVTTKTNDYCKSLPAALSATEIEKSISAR
The test is described as follows: flow cytometry on NCIH929 cells. An excerpt:
(§1) FACS Analysis: FACs antibodies used in this study include: 1) LS-C106982-100 Mouse Monoclonal to Human TNFRSF12A-R-Phycoerythrin (PE) (LifeSpan BioSciences, Inc.); 2) EM901 has been previously characterized as a BCMA-binding antibody (Mab42; International Application Number WO2017/021450); 3) Ebiosciences anti-human IgG Fey-specific, labeled with PE; 4) Human IgG isotype control; 5) Anti-TACI antibody [1A1](Abcam); 6) BAFF Receptor antibody 8A7 (ThermoFisher); 7) BCMA antibody 19F2 (BioLegend). Each cell type (75,000 cells/well) was incubated with primary antibodies in FACs buffer (PBS containing 0.2% BSA) for 25 min in a 96 well plate. Cells were washed once with FACs buffer and incubated with 1:100 dilution secondary antibody for 25 min. After washing once, cells were fixed for 10 min with 1% paraformaldehyde, washed with FACs buffer and resuspended in 100 μL FACs buffer. Labeled cells were analyzed using an Attune NxT Flow Cytometer and data processed using FlowJo 10.0.8r1 (FLOWJO LLC), according to the manufacturer's instructions.
The reactivity of each mAb was monitored by FACs. The EM901 antibody, that recognizes BCMA, robustly bound NCIH929 cells. […] Geometric means quantifying these binding interactions are shown (FIG. 4).
Background: A flow cytometer gives signals particle by particle.

The target of test [2] is T2, human TNFRSF12A (human, UniProt Q9NP84 28-129).
T2 construct: whole, on cells; also called TWEAKR
T2 sequence (looked up): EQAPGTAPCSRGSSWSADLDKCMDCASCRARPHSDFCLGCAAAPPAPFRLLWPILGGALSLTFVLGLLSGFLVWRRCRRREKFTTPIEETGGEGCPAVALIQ
The test is described as follows: flow cytometry on Hek293 cells stably transfected with human TNFRSF12A.
Text: as §1
The reactivity of each antibody was monitored by FACs. An anti-TNFRSF12A antibody stained Hek293-TNFRSF12A cells, indicative of TNFRSF12A expression. […] Geometric means quantifying these binding interactions are shown (FIG. 3).

In test [3] the target is T3, TACI (UniProt O14836 1-293, limits assumed).
T3 construct: whole, on cells
T3 sequence (looked up): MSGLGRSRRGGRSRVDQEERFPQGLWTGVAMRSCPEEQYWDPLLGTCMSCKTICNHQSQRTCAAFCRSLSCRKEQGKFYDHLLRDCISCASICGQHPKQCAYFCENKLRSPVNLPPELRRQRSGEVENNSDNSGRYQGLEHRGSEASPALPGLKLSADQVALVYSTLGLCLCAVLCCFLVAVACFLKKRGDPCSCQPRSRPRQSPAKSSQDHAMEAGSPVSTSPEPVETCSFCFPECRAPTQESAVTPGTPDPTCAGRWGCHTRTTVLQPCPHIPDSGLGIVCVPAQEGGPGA
The test is described as follows: flow cytometry, dose response on NUDHL1 cells.
Text: as §1
(§2) The reactivity of each mAb was monitored by FACs. […] Geometric means quantifying these binding interactions are shown (FIG. 5).

Test [4] has as its target T4, BAFF receptor (UniProt Q96RJ3 1-184, limits assumed).
T4 construct: whole, on cells
T4 sequence (looked up): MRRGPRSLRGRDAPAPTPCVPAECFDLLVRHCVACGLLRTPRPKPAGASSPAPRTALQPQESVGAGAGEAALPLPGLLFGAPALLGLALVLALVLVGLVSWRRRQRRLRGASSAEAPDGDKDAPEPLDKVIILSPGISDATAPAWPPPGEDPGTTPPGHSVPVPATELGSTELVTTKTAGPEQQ
The test is described as follows: flow cytometry, dose response on NUDHL1 cells.
Text: as §1, §2

The target of test [5] is T1, human BCMA. Kind of test: flow cytometry on C6 cells stably transfected with human BCMA, 0.4 ug/ml antibody.
Text: as §1
(§3) The reactivity of each antibody was monitored by FACs. […] Geometric mean values quantifying these binding interactions are included (FIG. 2).

Test [6] has as its target T1, human BCMA. The test is described as follows: flow cytometry on C6 cells expressing human BCMA.
Text: as §1, §3

B1: 319966 (antibody, IgG1, V domains shown)
VH: QLQLQESGPGLVKPSETLSLTCTVSGSSISRSNYYWGWIRQPPGKGLEWIGTFYYSGTTYYNPSLKSRVTISEDTSKKQLSLNLRSVTAADTAVYYCARPSGYTTSWGQGTLVTVSS
VL: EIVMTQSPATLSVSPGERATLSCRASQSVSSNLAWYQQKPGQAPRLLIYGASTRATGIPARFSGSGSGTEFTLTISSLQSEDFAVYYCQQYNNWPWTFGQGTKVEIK
notes: also called human IgG antibody 319966
On to B1, for which the values for the binding result in test [1] and in test [2] were “binds” and “no binding (tested: 0.4 ug/ml)”, respectively.

B2: 320111 (antibody, IgG1, V domains shown)
VH: QLPLQESGPGLVKPSETLSLTCTVSGGSIRSSSYYWGWIRQPPGKGLEWIGTIYYSGSTYYNPSLKSRVTISVDTSKNQLSLKLSSVTAADTAVYYCARPYYDSSGYYYYWGQGTLVTVSS
VL: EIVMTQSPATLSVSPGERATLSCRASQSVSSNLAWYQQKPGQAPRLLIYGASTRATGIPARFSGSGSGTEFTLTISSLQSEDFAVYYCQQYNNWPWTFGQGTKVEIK
B2: the binding result in test [1] is given as “binds”; in test [3], “no binding”; in test [4] it was “no binding”; in test [2] it was “no binding (tested: 0.4 ug/ml)”.

B3: 319883 (antibody, IgG1, V domains shown)
VH: QLQLQESGPGLVKPSDTLSLTCTVSGGSISSSNSYWGWIRQSPGRGLEWIGRIYYSGITHYNPSLKSRVTISVDTSKNQFSLKLSSVTAADTAVYYCASPYKWNDGNFFGWGQGTLVTVSS
VL: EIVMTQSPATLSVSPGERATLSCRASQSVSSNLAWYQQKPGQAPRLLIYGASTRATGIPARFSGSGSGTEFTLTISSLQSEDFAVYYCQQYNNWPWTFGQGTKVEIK
Take B3: the binding result is reported as “no binding (tested: 0.4 ug/ml)” in test [2] and “binds” in test [5].

B4: 320199 (antibody, IgG1, V domains shown)
VH: QLQLQESGPGLVKPSETLSLTCTVSGGSISSSNSYWGWIRQSPGRGLEWIGRIYYSGITHYNPSLKSRVTISVDTSKNQFSLKLSSVTAADTAVYYCASPYKWNDGNFFGWGQGTLVTVSS
VL: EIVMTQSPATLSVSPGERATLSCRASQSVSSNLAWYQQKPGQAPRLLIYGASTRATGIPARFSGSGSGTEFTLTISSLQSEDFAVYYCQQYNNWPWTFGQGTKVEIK
notes: also called human IgG antibody 320199
Turning to B4, the binding result in test [2] is on record as “no binding (tested: 0.4 ug/ml)”; in test [5], “binds”.

B5: 320262 (antibody, IgG1, V domains shown)
VH: QLQLQESGPGLVKPSETLSLTCTVSGGSISNSNYYWGWIRQPPGKGLEWIGNIYYSGRTYYTPSLKSRVTISEDTSKNQFSLKVRSVTVADTGVYYCARPDYYGSGTIAWGQGTLVTVSS
VL: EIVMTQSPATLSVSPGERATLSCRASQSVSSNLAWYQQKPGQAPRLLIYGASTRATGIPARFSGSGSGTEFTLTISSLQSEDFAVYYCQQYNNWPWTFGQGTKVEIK
B5: the binding result in test [3] is “no binding”; in test [4] it was “no binding”; in test [6] it was “binds”; in test [2], “no binding (tested: 0.4 ug/ml)”.
